The record followed here is US10246503B2, “Method of improving the pharmacokinetic profile of a therapeutic polypeptide and the use thereof” (BEIJING ANXINHUAIDE BIOTECH. CO., LTD, priority 2012, dated 2019).

Data set [1] concerns cynomolgus monkeys. Put plainly: specific antibody against the fusion protein in monkey serum, ELISA. Conditions: serum of three cynomolgus monkeys one month after dosing. In kind it is in vivo. The text has this:
The serum samples of the cynomolgus monkeys receiving the fusion protein GLP1(A8G/G22E/R36G)-Fn8-p246-COL18NC1 were withdrawn one month after dosing to examine whether specific antibody against GLP1(A8G/G22E/R36G)-Fn8-p246-COL18NC1 has been generated.

The test system of data set [2] is SD rats. Put plainly: toxicity in SD rats. In kind it is in vivo. The source says: The toxicity of GLP1(A8G/G22E/R36G)-Fn8-p246-COL18NC1 in SD rats was also examined.
Data set [3] in a line: pharmacokinetics in cynomolgus monkeys, sandwich ELISA. As to conditions: subcutaneous, 5 nmol/kg. The format is in vivo. The protocol: (§1) The GLP-1 concentrations within the samples were examined by use of the sandwich ELISA method. The rabbit polyclonal antibody against human Fibronectin at the concentration of 3 ug/ml (Ab299, Abcam company) was coated on ELISA plate for 1 hour at room temperature. Then the plate was washed by PBST buffer three times and the wells were blocked by PBS with 10% FBS for 1 hour at room temperature. The plate was washed three times before the serum samples containing GLP-1 fusion proteins were added. The serum samples could be diluted to 20-10000 folds before use. The ELISA plate was incubated with the serum samples at room temperature for 1 hour and then washed by PBST buffer five times. Then mouse monoclonal against human GLP-1 peptide antibody (sc57510, Santa Cruz Biotechnology) at the concentration of 1 ug/ml in PBST buffer was added to the wells. The plate was washed extensively after incubation of 1 hour at room temperature. The secondary antibody, […] HRP conjugated antibody (Beijing ZSGB-Bio company, ZB 5301), was added into the wells and the color was developed using TMB (3,3′,5,5′-tetramethylbenzidine, BD Biosciences, Cat 555214). The plate reader (Bio-Rad microplate reader Model 680) was utilized to obtain the OD450 readings. This method has been calibrated using purified proteins first.
To further investigate the pharmacokinetics profiles for the GLP-1 containing fusion proteins generated using the method of the invention, the fusion protein GLP1(A8G/G22E/R36G)-Fn8-p246-COL18NC1 was administrated into the cynomolgus monkeys by subcutaneous injection. The fusion protein was administered on three cynomolgus monkeys at the dose of 5 nmol/kg. Blood samples were taken at various time points after injections such as 0-min, 2-hour, 4-hour, 6-hour, 8-hour, 24-hour, 48-hour, and daily until the 15th day. The serum samples were centrifuged and kept at −80° C. freezer. The concentrations of the fusion protein within the serum samples were examined by using the sandwich ELISA method described above. The pharmacokinetics profile of the fusion protein GLP1(A8G/G22E/R36G)-Fn8-p246-COL18NC1 in cynomolgus monkeys was shown in FIG. 8. The pharmacokinetics parameters were obtained by using the WinNonlin software (Table 5).

Data set [4] is described as follows: pharmacokinetics in SD rats, sandwich ELISA (Example 15). The format is in vivo, SD (Sprague-Dawley) rats. Conditions: intraperitoneal, 5 nmol/kg. The protocol:
To evaluate the pharmacokinetics profiles for the GLP-1 containing fusion proteins generated using the method of the invention, we purified the recombinant fusion proteins of GLP-1-Fn8-COL18NC1, GLP1(A8G/G22E/R36G)-Fn8-p246-COL18NC1 and GLP1(A8G/G22E/R36G)-Fn8-p285-COL18NC1 in PBS buffer, pH 7.2. These fusion proteins were administered into SD (Sprague-Dawley) rats by intraperitoneal injections at the dose of 5 nmol/kg for animals, respectively. Blood samples were taken at various time points after injections such as 0-min, 30-min, 1-hour, 2-hour, 4-hour, 6-hour, 8-hour, 24-hour, 48-hour, 3-day, 4-day, 5-day, 6-day and 7-day. The serum samples were centrifuged and kept at −80° C. freezer.
as §1
The pharmacokinetics parameters were obtained by using the WinNonlin software (Table 5).

The subject of data set [5] is SD rats. As to the kind of experiment: Intraperitoneal glucose tolerance test (IPGTT) in SD rats. The format is in vivo, SD (Sprague-Dawley) rats. How it is done: In this figure, GLP1(A8G/G22E/R36G)-Fn8-p246-COL18NC1 is labeled as p246. In FIG. 9a, the rats were injected with saline, GLP1(A8G/G22E/R36G)-Fn8-p246-COL18NC1 at the dose of 10_nmol/kg and 20_nmol/kg, respectively. 8 hours after the administrations of the fusion protein (and control), the IPGTT experiments were conducted. The three curves indicated the glucose levels in the IPGTT for rats that received negative control (saline), GLP1(A8G/G22E/R36G)-Fn8-p246-COL18NC1 at the doses of 10_nmol/kg and 20_nmol/kg, respectively. In FIG. 9b, the rats were injected with saline, GLP1(A8G/G22E/R36G)-Fn8-p246-COL18NC1 at the dose of 20 nmol/kg. 32 hours and 102 hours after the administrations of the fusion protein (and the control), the IPGTT experiments were conducted. The three curves indicated the glucose levels in the IPGTT for rats that 32 hours and 102 hours after administration of negative control (saline), GLP1(A8G/G22E/R36G)-Fn8-p246-COL18NC1 respectively.
To evaluate the efficacy of GLP1(A8G/G22E/R36G)-Fn8-p246-COL18NC1 to reduce the glucose level in animal models, we performed the Intraperitoneal glucose tolerance test (IPGTT) in SD rats. The fusion protein GLP1(A8G/G22E/R36G)-Fn8-p246-COL18NC1 was administered on SD (Sprague-Dawley) rats by intraperitoneal injections at the dose of 10 nmol/kg and 20 nmol/kg for animals, respectively. Glucose was injected into the animals with the dose of 2 g/kg at 8 hours, 32 hours and 100 hours after the injection of the fusion protein GLP1(A8G/G22E/R36G)-Fn8-p246-COL18NC1. Blood samples were taken at various time points after injections such as 0-min, 10-min, 20-min, 30-min, 60-min and 120-min. The glucose levels within the blood samples were measured using a Accu-Chek Performa blood glucose meter (Roche) immediately. In FIG. 9a, the rats were injected with GLP1(A8G/G22E/R36G)-Fn8-p246-COL18NC1 at the dose of 10 nmol/kg and 20 nmol/kg about 8 hours before the IPGTT experiments were conducted. […] In FIG. 9b, about 32 hours and 100 hours after the rats were injected with GLP1(A8G/G22E/R36G)-Fn8-p246-COL18NC1 at the dose of 20 nmol/kg, the IPGTT experiments were conducted.

B1: GLP1(A8G/G22E/R36G)-Fn8-p246-COL18NC1: GLP-1 mutant, Fn8, pCloud p246, COL18NC1 fusion; SEQ ID NO: 16 (protein)
chain: HGEGTFTSDVSSYLEEQAAKEFIAWLVKGGGSGGGSGGGSGGGSGGGSGSGGAVPPPTDLRFTNIGPDTMRVTWAPPPSIDLTNFLVRYSPVKNEEDVAELSISPSDNAVVLTNLLPGTEYVVSVSSVYEQHESTPLRGRQKTGGGGSGGGSGSGSESGSGGGSTSSGTGSETESPGSGSESGSGPSSAGSGSGSESGSGSGSSGPGSTGGSGSESGSGPGSSGTGGTATGSGSESGSGPGSSGPGSTGSGSGSESGSGSGSSGTGSTGGSGSESGSGPGSPRPGSTGTGSGSESGSGPGSSERGSAGGSGSESGSGTSESSASGSTGGSGSESGSGSESGSGSGSESGSGPESPGSGGSGSESGSGTSGSTGSGSESGSGGGSGGGSGGGASSGVRLWATRQAMLGQVHEVPEGWLIFVAEQEELYVRVQNGFRKVQLEARTPLPRG
For B1, the “specific antibody against the fusion protein” value in data set [1] was “no specific antibody was induced”. The “unacceptable adverse effects such as significant weight loss and fever” value in data set [2] (repeated doses of 5 nmol/kg every three days for four weeks) and in data set [2] (single dose of 30 nmol/kg) was “did not induce unacceptable adverse effects” throughout. Further, the values for the AUCall in data set [3] (Monkey) and in data set [4] (Rats) were 1267.8 µg·h/mL and 301.2 µg·h/mL, respectively. Further, the results for the CL/F in data set [3] (Monkey) and in data set [4] (Rats) were 0.48 mL/h/kg and 2.03 mL/h/kg, respectively. Moreover, the results for the peak concentration (Cmax) in data set [3] (Monkey) and in data set [4] (Rats) were 8210 ng/mL and 5730 ng/mL, respectively. In addition, the results for the T½ in data set [3] (Monkey) and in data set [4] (Rats) were 67.3 h and 30.8 h, respectively. Further, the results for the Vss in data set [3] (Monkey) and in data set [4] (Rats) were 0.0516 L/kg and 0.09023 L/kg, respectively. In addition, the half life in data set [3] (cynomolgus monkeys) is about 67 h; in data set [4] (SD rats), 30.8 h. Further, the “glucose level in IPGTT” value in data set [5] (10 nmol/kg intraperitoneal, about 8 hours before IPGTT, glucose 2 g/kg) was “can efficiently reduce the glucose level”; in data set [5] (20 nmol/kg intraperitoneal, about 8 hours before IPGTT, glucose 2 g/kg), “can efficiently reduce the glucose level”; in data set [5] (20 nmol/kg, 100 hours after the injection) it was “can still reduce the glucose level significantly”. For the same molecule, in data set [5] (single dose 20 nmol/kg, IPGTT about 32 hours and 100 hours after injection), the “glucose-reducing activity in IPGTT” value is listed as “can maintain its glucose-reducing activity in vivo for an extended period of time”.
